The values that follow come from PMC6469041 (BMC Microbiology, 2019).

Data set [1] deals with T1, PhnCDE (strain RS07, phn+3Δ) (Escherichia coli, UniProt A0A140NFA3+P16682).
T1 construct: gene phnD; native chromosomal ABC transporter in intact cells of RS07 (MG1655 ΔpitA ΔugpBAEC ΔpstSCAB-phoU phnE+); phnE is the functional BL21 allele without the 8 bp insertion of K-12; phnC and phnD may be of K-12 or co-transduced from BL21
T1 sequence (P16682 27-338): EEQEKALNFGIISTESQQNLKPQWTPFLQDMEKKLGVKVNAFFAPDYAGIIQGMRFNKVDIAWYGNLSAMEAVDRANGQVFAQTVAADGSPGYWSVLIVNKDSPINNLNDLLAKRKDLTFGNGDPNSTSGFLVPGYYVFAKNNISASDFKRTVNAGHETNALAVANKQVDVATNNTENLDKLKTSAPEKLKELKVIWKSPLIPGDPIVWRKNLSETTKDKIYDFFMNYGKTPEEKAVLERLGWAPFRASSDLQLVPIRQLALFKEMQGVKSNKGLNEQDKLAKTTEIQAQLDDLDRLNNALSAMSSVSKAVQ
T1 sequence (A0A140NFA3 1-259): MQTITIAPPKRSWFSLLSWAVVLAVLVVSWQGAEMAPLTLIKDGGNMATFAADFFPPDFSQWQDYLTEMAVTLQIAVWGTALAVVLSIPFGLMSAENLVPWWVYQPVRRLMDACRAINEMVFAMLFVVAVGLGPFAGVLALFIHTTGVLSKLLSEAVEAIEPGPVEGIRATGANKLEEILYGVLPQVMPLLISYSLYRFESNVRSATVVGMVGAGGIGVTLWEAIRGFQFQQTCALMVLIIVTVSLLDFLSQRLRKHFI
T1 sequence (P16677 1-262 partner): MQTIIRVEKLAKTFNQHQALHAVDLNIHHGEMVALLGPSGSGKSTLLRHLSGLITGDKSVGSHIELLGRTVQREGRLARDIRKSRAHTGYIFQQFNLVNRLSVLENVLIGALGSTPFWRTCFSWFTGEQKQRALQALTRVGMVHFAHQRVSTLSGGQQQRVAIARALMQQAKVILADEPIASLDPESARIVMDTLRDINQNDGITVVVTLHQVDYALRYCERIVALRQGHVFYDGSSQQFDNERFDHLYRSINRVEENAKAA
In words: competition of […] uptake by intact cells. To be noted: 10 µM 32Pi, 4 mM AePn added 50 s later; strain used for this test not named. The data set is classed as cell-based.

Substrate in data set [2]: O=P(O)(O)O
Briefly: cells, lysate or membranes.

With `NCCP(=O)(O)O` [AePn, aminoethylphosphonate], the “inhibition of Pi uptake at 4 mM” value in data set [1] is “addition of AePn strongly inhibited Pi uptake when compared to the control”.

B1: PitA (strain RS04, pitA+3Δ) (Escherichia coli K-12) (protein)
chain: MLHLFAGLDLHTGLLLLLALAFVLFYEAINGFHDTANAVATVIYTRAMRSQLAVVMAAVFNFLGVLLGGLSVAYAIVHMLPTDLLLNMGSSHGLAMVFSMLLAAIIWNLGTWYFGLPASSSHTLIGAIIGIGLTNALMTGTSVVDALNIPKVLSIFGSLIVSPIVGLVFAGGLIFLLRRYWSGTKKRARIHLTPAEREKKDGKKKPPFWTRIALILSAIGVAFSHGANDGQKGIGLVMLVLIGVAPAGFVVNMNATGYEITRTRDAINNVEAYFEQHPALLKQATGADQLVPAPEAGATQPAEFHCHPSNTINALNRLKGMLTTDVESYDKLSLDQRSQMRRIMLCVSDTIDKVVKMPGVSADDQRLLKKLKSDMLSTIEYAPVWIIMAVALALGIGTMIGWRRVATTIGEKIGKKGMTYAQGMSAQMTAAVSIGLASYTGMPVSTTHVLSSSVAGTMVVDGGGLQRKTVTSILMAWVFTLPAAVLLSGGLYWLSLQFL
A word on the Km: it is the concentration of substrate that gives half-maximal velocity. For B1, the Km in data set [2] (15-50 µM KH2PO4, TG medium (Tris T-salts, glucose) pH 7.5, labelled compound) turned out to be 25.99 µM.

B2: PhnCDE (strain RS07, phn+3Δ) (Escherichia coli BL21(DE3)) (protein)
chain 1: EEQEKALNFGIISTESQQNLKPQWTPFLQDMEKKLGVKVNAFFAPDYAGIIQGMRFNKVDIAWYGNLSAMEAVDRANGQVFAQTVAADGSPGYWSVLIVNKDSPINNLNDLLAKRKDLTFGNGDPNSTSGFLVPGYYVFAKNNISASDFKRTVNAGHETNALAVANKQVDVATNNTENLDKLKTSAPEKLKELKVIWKSPLIPGDPIVWRKNLSETTKDKIYDFFMNYGKTPEEKAVLERLGWAPFRASSDLQLVPIRQLALFKEMQGVKSNKGLNEQDKLAKTTEIQAQLDDLDRLNNALSAMSSVSKAVQ
chain 2: MQTITIAPPKRSWFSLLSWAVVLAVLVVSWQGAEMAPLTLIKDGGNMATFAADFFPPDFSQWQDYLTEMAVTLQIAVWGTALAVVLSIPFGLMSAENLVPWWVYQPVRRLMDACRAINEMVFAMLFVVAVGLGPFAGVLALFIHTTGVLSKLLSEAVEAIEPGPVEGIRATGANKLEEILYGVLPQVMPLLISYSLYRFESNVRSATVVGMVGAGGIGVTLWEAIRGFQFQQTCALMVLIIVTVSLLDFLSQRLRKHFI
In the case of B2, the Km in data set [2] (5-20 µM KH2PO4, TG medium (Tris T-salts, glucose) pH 7.5, labelled compound) is 19.46 µM.
